For one molecule, EC50, Top and Top (MFI) results are on record in patent publication US20240301052A1 (LANOVA MEDICINES DEVELOPMENT, published 2024).

Read-outs that look alike come from different tables or passages of the source.

For assay [1], the target named is T1, human SLC34A2 (human, UniProt O95436 1-690).
T1 sequence (looked up): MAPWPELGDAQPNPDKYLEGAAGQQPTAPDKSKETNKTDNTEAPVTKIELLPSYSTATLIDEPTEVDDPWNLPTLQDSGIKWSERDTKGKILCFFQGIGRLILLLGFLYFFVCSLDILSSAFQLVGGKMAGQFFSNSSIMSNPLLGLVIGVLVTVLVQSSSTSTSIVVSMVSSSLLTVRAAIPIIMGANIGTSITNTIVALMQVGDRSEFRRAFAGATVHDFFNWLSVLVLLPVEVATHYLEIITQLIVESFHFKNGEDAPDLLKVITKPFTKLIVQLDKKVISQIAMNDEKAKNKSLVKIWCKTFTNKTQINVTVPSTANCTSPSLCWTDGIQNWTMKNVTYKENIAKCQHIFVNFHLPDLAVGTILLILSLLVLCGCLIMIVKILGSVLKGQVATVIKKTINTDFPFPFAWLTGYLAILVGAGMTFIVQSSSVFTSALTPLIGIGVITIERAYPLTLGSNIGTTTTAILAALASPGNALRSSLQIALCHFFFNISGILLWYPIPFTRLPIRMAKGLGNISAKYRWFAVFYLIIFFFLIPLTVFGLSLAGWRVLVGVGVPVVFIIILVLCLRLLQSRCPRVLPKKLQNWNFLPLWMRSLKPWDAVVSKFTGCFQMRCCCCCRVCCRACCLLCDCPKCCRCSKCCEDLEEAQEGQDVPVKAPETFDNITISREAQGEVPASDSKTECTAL
Nature of the assay: FACS, OVCAR3 cells.

The target in another assay is T2, mouse SLC34A2 (mouse, UniProt Q9DBP0 1-697).
T2 construct: whole, on cells
T2 sequence (looked up): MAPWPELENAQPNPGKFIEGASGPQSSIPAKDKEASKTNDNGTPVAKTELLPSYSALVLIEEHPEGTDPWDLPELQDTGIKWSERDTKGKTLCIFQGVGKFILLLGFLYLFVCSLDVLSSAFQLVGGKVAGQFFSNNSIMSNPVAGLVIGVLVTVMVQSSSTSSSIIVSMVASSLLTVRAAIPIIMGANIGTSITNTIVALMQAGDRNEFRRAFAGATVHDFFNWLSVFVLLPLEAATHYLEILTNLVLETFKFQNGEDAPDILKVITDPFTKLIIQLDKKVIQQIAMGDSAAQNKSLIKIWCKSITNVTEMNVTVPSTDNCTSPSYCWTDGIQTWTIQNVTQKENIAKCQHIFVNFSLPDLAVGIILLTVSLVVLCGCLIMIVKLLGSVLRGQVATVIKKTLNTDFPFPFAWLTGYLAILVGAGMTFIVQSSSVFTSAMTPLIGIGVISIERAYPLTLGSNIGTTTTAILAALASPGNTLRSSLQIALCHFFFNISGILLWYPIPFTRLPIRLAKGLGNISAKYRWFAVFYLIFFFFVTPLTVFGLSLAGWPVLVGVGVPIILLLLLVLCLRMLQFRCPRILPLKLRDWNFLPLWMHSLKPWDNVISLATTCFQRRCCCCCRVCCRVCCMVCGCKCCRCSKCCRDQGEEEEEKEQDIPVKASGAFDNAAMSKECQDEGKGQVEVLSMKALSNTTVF
Nature of the assay: FACS, HEK293/Mouse SLC34A2 cells.

A further assay concerns the target T3, Rhesus SLC34A2 (Rhesus, UniProt F7HDA3 1-690).
T3 construct: whole, on cells
T3 sequence: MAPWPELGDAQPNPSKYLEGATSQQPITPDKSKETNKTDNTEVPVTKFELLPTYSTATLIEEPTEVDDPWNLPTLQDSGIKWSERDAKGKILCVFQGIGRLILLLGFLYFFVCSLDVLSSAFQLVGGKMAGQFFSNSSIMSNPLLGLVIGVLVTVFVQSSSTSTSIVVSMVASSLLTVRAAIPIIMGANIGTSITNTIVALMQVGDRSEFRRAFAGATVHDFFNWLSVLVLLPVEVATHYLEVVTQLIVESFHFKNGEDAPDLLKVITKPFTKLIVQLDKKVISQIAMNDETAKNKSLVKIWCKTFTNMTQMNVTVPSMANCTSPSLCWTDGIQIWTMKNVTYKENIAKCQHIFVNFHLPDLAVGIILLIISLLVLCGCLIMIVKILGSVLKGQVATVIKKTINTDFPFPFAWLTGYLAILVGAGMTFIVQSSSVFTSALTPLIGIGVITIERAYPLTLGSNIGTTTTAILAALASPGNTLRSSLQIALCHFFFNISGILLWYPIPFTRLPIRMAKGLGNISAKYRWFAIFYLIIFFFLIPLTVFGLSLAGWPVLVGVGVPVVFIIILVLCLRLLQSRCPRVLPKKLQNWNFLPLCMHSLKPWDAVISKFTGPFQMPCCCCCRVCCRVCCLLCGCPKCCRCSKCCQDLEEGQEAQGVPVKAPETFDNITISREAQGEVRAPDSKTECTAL
Kind of assay: FACS, HEK293/Rhesus SLC34A2 cells. For orientation: A flow cytometer gives signals particle by particle.

Assay [2] deals with Cynomolgus SLC34A2 (Cynomolgus). Kind of assay: FACS, cells expressing Cynomolgus SLC34A2.
The target in assay [3] is T1, human SLC34A2. Nature of the assay: FACS, OVCAR3 cells. This is another data set of the same source.

B1: XMT-1536 (antibody, INN chains, looked up, V domains shown)
VH: QVQLVQSGAEVVKPGASVKMSCKASGYTFTGYNIHWVKQAPGQGLEWIGAIYPGNGDTSYKQKFRGRATLTADTSTSTVYMELSSLRSEDSAVYYCARGETARATFAYWGQGTLVTVSS
VL: DIQMTQSPSSLSASVGDRVTITCSASQDIGNFLNWYQQKPGKTVKVLIYYTSSLYSGVPSRFSGSGSGTDYTLTISSLQPEDFATYYCQQYSKLPLTFGQGTKLELK
modifications: rilsodotin auristatin payload
In general, EC50 refers to the concentration at which the effect is half-maximal. Lower therefore signals higher potency in that assay. As for B1, the EC50 with human SLC34A2 [1] was 10.3 nM; in the assay with mouse SLC34A2, 6.13 nM; with Rhesus SLC34A2, 5.8 nM; in assay [2], 3.72 nM; with human SLC34A2 [3], 6.82 nM. Besides, the Top in the assay with human SLC34A2 [1] amounted to 22500 MFI. Also, the Top (MFI) with Rhesus SLC34A2 came to 27000 MFI.
